Experimental findings from PMC3937304, “The Secreted Triose Phosphate Isomerase of Brugia malayi Is Required to Sustain Microfilaria Production In Vivo” (PLoS Pathogens, 2014) are described below.

This series has as its system O=C(CO)COP(=O)(O)O. In words: purified protein. Conditions: DHAP to G3P direction, 100 mM TEA-HCl pH 7.6, 1 mM EDTA, 1 mM NAD+, 5 mM disodium hydrogen arsenate, 25 °C, 0.16-10 mM DHAP.

For “recombinant Ls-TPI (Litomosoides sigmodontis)”, the Km (commonly the concentration of substrate that gives half-maximal velocity) was found to be 1933 µM.
In the case of recombinant Bm-TPI (Brugia malayi), the Km is 1800 µM.
